Source: paper PMC7920882

Assays:
Experiment in all cases: BLI; reverse outlay: full-length IgG-like constructs (50 ug/mL) loaded on anti-human Fc tips; VEGF in 2-fold dilutions from 500 nM; 25 C, PBS with Kinetic Buffer
[1] = target: TRA-CH3_(ZWHY)/CT6_(ZWLY)
TRA-CT6ZWY = target: TRA-CT6ZWY
[2] = target: TRA-CT6_(ZWHY)/CH3_(ZWLY)
TRA-CT6 mAb^2 = target: TRA-CT6 mAb^2
TRA-CT6ZW-FT = target: TRA-CT6ZW-FT

Kd [1]: 6.2 nM
Kd (TRA-CT6ZWY): 16.6 nM
Kd [2]: 16.7 nM
Kd (TRA-CT6 mAb^2): 2.78 nM
Kd (TRA-CT6ZW-FT): 1.48 nM
Substance: VEGF isomer 109 with N75Q mutation (ligand)
